Measured values as given in patent JP2005515752A (dated 2005).

T1: 可溶性ヒトRANKL蛋白質 (human, UniProt O14788 140-317, limits assumed, biotinylated with NHS-biotin at 20:1 molar ratio in the competition ELISA (sites not given); not biotinylated in the cell assays)
T1 sequence (looked up): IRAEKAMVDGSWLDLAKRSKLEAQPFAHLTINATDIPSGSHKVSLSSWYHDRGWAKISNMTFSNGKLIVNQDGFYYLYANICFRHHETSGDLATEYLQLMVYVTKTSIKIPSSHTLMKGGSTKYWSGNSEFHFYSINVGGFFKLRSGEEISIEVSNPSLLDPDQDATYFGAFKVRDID


Columns and labels:
可溶性ヒトRANKL蛋白質 [1] = target: T1, 可溶性ヒトRANKL蛋白質; test: cell-based or functional assay
可溶性ヒトRANKL蛋白質 [2] = target: T1, 可溶性ヒトRANKL蛋白質; test: competition ELISA: inhibition of biotinylated shRANKL binding to coated RANK-Fc
可溶性ヒトRANKL蛋白質 [3] = target: T1, 可溶性ヒトRANKL蛋白質; test: not described in an example; paragraph 39 names optical biosensor analysis for the Kd
可溶性ヒトRANKL蛋白質 [4] = target: T1, 可溶性ヒトRANKL蛋白質; test: competition ELISA: soluble competitor against biotinylated shRANKL binding to coated RANK-Fc

Binder	IC50, osteoclast formation from human monocytes with human soluble RANKL and M-CSF (multinucleated cells) (可溶性ヒトRANKL蛋白質 [1]) [µg/mL]	IC50, osteoclast formation from mouse bone marrow cells stimulated by human sRANKL (TRAP-positive cells per well) (可溶性ヒトRANKL蛋白質 [1]) [µg/mL]	concentration of complete inhibition, osteoclast formation from mouse bone marrow cells stimulated by human sRANKL (可溶性ヒトRANKL蛋白質 [1]) [µg/mL]	IC50 (可溶性ヒトRANKL蛋白質 [2]) [nM]	Kd (可溶性ヒトRANKL蛋白質 [3]) [nM]	IC50 (可溶性ヒトRANKL蛋白質 [4]) [nM]
マウスモノクローナル抗体14F3 (antibody, V domains shown, Murine IgG2a/kappa purified from hybridoma; also called RANKL mAb 14F3; mAb14F3) VH: EVQLVESGGDLVKPGGSLKLSCAASGFTFSRYGMSWVRQTPDKRLEWVATISSGGSYTYYPDSVKGRFTISRDNAKNTLYLQMSSLKSEDTAMYYCARLDGYNYRWYFDVWGTGTTVTVSS VL: DIVMTQSHKFMSTSVGDRVSITCKASQDVSSAVAWYQQKPGQSPKLLIYSASYRYTGVPDRFTGSGSGTDFTFTISSVQAEDLAVYYCQQHYSSPRTFGGGTNLEIKR	~4	~0.2	1	~2	~0.1	
ヒトRANK−Fc融合蛋白質 (Fc fusion, human, UniProt Q9Y6Q6 30-212, looked up, Construct limits and Fc not described; also called RANK−Fc蛋白質; not shown: Fc part) IAPPCTSEKHYEHLGRCCNKCEPGKYMSSKCTTTSDSVCLPCGPDEYLDSWNEEDKCLLHKVCDTGKALVAVVAGNSTTPRRCACTAGYHWSQDCECCRRNTECAPGLGAQHPLQLNKDTVCKPCLAGYFSDAFSSTDKCRPWTNCTFLGKRVEHHGTEKSDAVCSSSLPARKPPNEPHVYLP	~0.5		10			~6
OPG−Fc (Fc fusion, UniProt O00300 22-201, looked up, also called osteoprotegerin-Fc; not shown: Fc part; not described) ETFPPKYLHYDEETSHQLLCDKCPPGTYLKQHCTAKWKTVCAPCPDHYYTDSWHTSDECLYCSPVCKELQYVKQECNRTHNRVCECKEGRYLEIEFCLKHRSCPPGFGVVQAGTPERNTVCKRCPDGFFSNETSSKAPCRKHTNCSVFGLLLTQKGNATHDNICSGNSESTQKCGIDVTL		~0.2	1	~0.5		
